Assay results reported in paper doi:10.1101/2025.10.26.684595.

Legend:
[1] = target: mouse PIEZO1 in the cryo-EM complex with mouse MDFI (mouse) (UniProt E2JF22); assay: cryo-EM structure; conditions: remark: other sources report otherwise
[2] = target: human PIEZO2 in the cryo-EM complexes with MDFIC and MDFIC2 (human) (UniProt Q9H5I5); assay: cryo-EM structure

| Substance | stoichiometry N [1] | stoichiometry N [2] |
| --- | --- | --- |
| mouse PIEZO1 in the cryo-EM complex with mouse MDFI, E2JF22 1-2547 | 3 |  |
| human PIEZO2 in the cryo-EM complexes with MDFIC and MDFIC2, Q9H5I5 |  | 3 |
